B1: TPR t1 (parent)
chain: GACCAAUCUGCCCUCAGAGCUCGAGAACAUCUUCGGAUGCAGAGGAGGCAGGCUUCGGUGGCGCGAUAGCGCCAACGUCCUCAACCUCCAAUGCAUCCCACCACAUGAUGAUGCCUGAAGAGCCUUGGUUUUUUG

Variants of: B1
Assay: polymerase ribozyme fitness, log enrichment relative to wild type (log ratio); higher = more active; in vitro selection for triplet polymerase activity
How it was run: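 After PCR construction and transcription, each subunit's mutant library from a heterodimeric triplet polymerase ribozyme was annealed with a biotinylated primer, the partner subunit and triplets. Incubation was frozen, at −7 °C, and extended constructs were gel-excised, bound to streptavidin beads and amplified by RT-PCR, in one selection round done in triplicate. Fitness is the logarithm of a genotype's enrichment divided by that of the wild type, from inverse-variance-weighted replicate averages of Illumina-sequenced inputs and outputs. The base of the logarithm is 2, and genotypes needed ≥10 input reads and ≥1 read per output.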

Going from U7A G19U C73G U92A to U7C C49U A50C C99U A100U G117U, the “polymerase ribozyme fitness (log ratio)” value falls from -4.76 to -6.3.

Compared with U7G U32A G39U G127C U130C, U7G C98U is higher in “polymerase ribozyme fitness (log ratio)” value: -5.02 for the first, -0.713 for the second.

Compared with C8G C15A G51U C76U C98U, U7G G51C is higher in “polymerase ribozyme fitness (log ratio)” value: -4.46 for the first, -2.99 for the second.

First: C8A A18C G60U
Second: C8A G42U U96A A100U
The “polymerase ribozyme fitness (log ratio)” value of the first is higher: -1.62 for the first, -2.37 for the second.

Going from U7A C12U C62A G113C to U7G U96C, the “polymerase ribozyme fitness (log ratio)” value rises from -3.19 to -0.0298.

Compared with U7A C53U C70U, U7C C11G A100C G120A is higher in “polymerase ribozyme fitness (log ratio)” value: -0.899 for the first, 1.21 for the second.

U7G A84U G127A and U7C C56U C72U U130G are within 0.2 log units of each other in “polymerase ribozyme fitness (log ratio)” value: -0.135 for the first, -0.275 for the second.

Going from U7A G61A C73A C104G U109C to C8A C11G A103C A119U G120A, the “polymerase ribozyme fitness (log ratio)” value rises from -6.61 to -3.31.

First: C8A G61U C98A
Second: U7G G36U U96C C104U
The “polymerase ribozyme fitness (log ratio)” value of the first is lower: -3.46 for the first, -3.09 for the second.

Going from U7A C11A U81A to U7C G61A U81G U116G C124A, the “polymerase ribozyme fitness (log ratio)” value falls from -1.32 to -2.26.

U7G G63C and C8A A41U G69U C86A are within 0.2 log units of each other in “polymerase ribozyme fitness (log ratio)” value: -0.0723 for the first, -0.0176 for the second.

Going from C8A U21A A84U to C8G C12A G39A G61U A111U U130A, the “polymerase ribozyme fitness (log ratio)” value falls from -0.224 to -2.24.

Going from U7C A50U C82U to C8A G52A, the “polymerase ribozyme fitness (log ratio)” value rises from -0.98 to -0.0157.

Compared with C8A C56U, U7C U9G A26G is lower in “polymerase ribozyme fitness (log ratio)” value: 0.138 for the first, -1.4 for the second.

First: U7A G57U
Second: C8A G10C A50U C72U
The “polymerase ribozyme fitness (log ratio)” value of the first is higher: -0.259 for the first, -1.02 for the second.

Going from C8A C49U C73U U130A to C8A C124A, the “polymerase ribozyme fitness (log ratio)” value rises from -0.88 to 2.16.

First: U7G C20U
Second: U7A C22A C40G A68U A84C G110C
The “polymerase ribozyme fitness (log ratio)” value of the first is higher: -1.37 for the first, -6.51 for the second.

U7G C34U G69U C102U U106A and U7C G44A are within 0.2 log units of each other in “polymerase ribozyme fitness (log ratio)” value: -0.632 for the first, -0.534 for the second.

First: C8A G51U C53G U81G C114A
Second: U7G G71U C97G G120U U132C
The “polymerase ribozyme fitness (log ratio)” value of the first is lower: -5.79 for the first, -3.27 for the second.

Going from U7G A84C U112C A119U to U7C G17C C115A, the “polymerase ribozyme fitness (log ratio)” value falls from 1.28 to 0.0409.

Going from C8G C20U G61A C101U to U7G C8A G44A C123A, the “polymerase ribozyme fitness (log ratio)” value rises from -0.517 to 1.17.

First: U7A U32C
Second: U7C C56A G135U
The “polymerase ribozyme fitness (log ratio)” value of the first is higher: 0.304 for the first, -1.85 for the second.

Going from U7A C70U C115A to C8A G44U G57A C64U, the “polymerase ribozyme fitness (log ratio)” value falls from 0.524 to -0.879.

Going from C8A A111U to C8A A111C, the “polymerase ribozyme fitness (log ratio)” value rises from -1.79 to 0.0486.

Compared with C8G C11U C70A C94U, C8A C115A is higher in “polymerase ribozyme fitness (log ratio)” value: -1.28 for the first, 0.286 for the second.

Going from C8A G51C C53A C88A C114A to C8A A18C U38G G61C C94U G110U C123U, the “polymerase ribozyme fitness (log ratio)” value falls from -5.74 to -7.38.

Going from C8G C22G G36A C85U U112A to C8A G19U, the “polymerase ribozyme fitness (log ratio)” value falls from -2.18 to -2.62.

Compared with U7C C8G C79A G110A, U7C A43U G52A C53U C85A U87A is lower in “polymerase ribozyme fitness (log ratio)” value: -2.4 for the first, -4.57 for the second.

First: C8A A83C A100C
Second: U7G U54A C102A U112A U131A
The “polymerase ribozyme fitness (log ratio)” value of the first is lower: -0.702 for the first, -0.106 for the second.

U7G C12U G36A C40A G45A G71U and U7C C28G G61U are within 0.2 log units of each other in “polymerase ribozyme fitness (log ratio)” value: -3.31 for the first, -3.14 for the second.

U7G G47U G113C and U7C C70U C101G are within 0.2 log units of each other in “polymerase ribozyme fitness (log ratio)” value: -2.84 for the first, -2.79 for the second.

Going from C8G C11U C40U A90G C97U U129G to C8G A27U A46C G69U U78A C114U, the “polymerase ribozyme fitness (log ratio)” value falls from -1.14 to -4.5.

Going from U7A U14G G17C C82G C102A C114G to C8A G69U, the “polymerase ribozyme fitness (log ratio)” value rises from -5.18 to 0.656.

Going from C8A C64U A95G A111G G122U G135A to C8A A91C G117C, the “polymerase ribozyme fitness (log ratio)” value falls from -0.12 to -2.17.

First: U7A C53U C73U C86U A90G G122A
Second: U7C C11G C82U
The “polymerase ribozyme fitness (log ratio)” value of the first is lower: -2.05 for the first, 0.131 for the second.

Compared with C8A C49U C72A A100C U106G U109A U132C, U7C G45U G60A C82G C85G G117A is higher in “polymerase ribozyme fitness (log ratio)” value: -4.59 for the first, -3.81 for the second.

First: C8G A18U G52U A90C
Second: C8A C79U C88G C102U
The “polymerase ribozyme fitness (log ratio)” value of the first is higher: -1.7 for the first, -2.19 for the second.

Going from C8A C53A U78C C80U to U7C G47A G69U C72A C102G, the “polymerase ribozyme fitness (log ratio)” value falls from -0.244 to -4.77.

Going from C8A G48A C89U C124U to U7A U9C G45C C70U C89A C123A, the “polymerase ribozyme fitness (log ratio)” value falls from 1.22 to -2.15.

Compared with C8A A26G C56G C115U, U7G C79U U81C C86U C88A U125A is lower in “polymerase ribozyme fitness (log ratio)” value: -1.74 for the first, -4.3 for the second.

Going from C8A U21G A50G C88A C124A to C8G A46U G117C, the “polymerase ribozyme fitness (log ratio)” value falls from -0.0763 to -1.21.

With U7C C34U C49A A50C the “polymerase ribozyme fitness (log ratio)” value was -5.35.

Reference: the RNAGym collection of RNA variant scans (doi:10.1073/pnas.2313332121)
